Laboratory results reported in US20250313621A1.

Columns and labels:
[1] = target: Wildtype human PAR2 expressed on cells (human) (UniProt P55085); experiment: cell-based or functional assay
[2] = target: Wildtype human PAR 1 (human) (UniProt P25116); experiment: cell-based or functional assay
[3] = target: V5His-huPAR2 on Flp-In CHO cells (human) (UniProt P55085); experiment: FACS titration on CHO_V5HIS-huPAR2 cells versus CHO parental cells (flat), RLU, axis Ab [nM]
V5His-huPAR2 on Flp-In CHO cells (human), sequence (P55085 37-397 limits assumed): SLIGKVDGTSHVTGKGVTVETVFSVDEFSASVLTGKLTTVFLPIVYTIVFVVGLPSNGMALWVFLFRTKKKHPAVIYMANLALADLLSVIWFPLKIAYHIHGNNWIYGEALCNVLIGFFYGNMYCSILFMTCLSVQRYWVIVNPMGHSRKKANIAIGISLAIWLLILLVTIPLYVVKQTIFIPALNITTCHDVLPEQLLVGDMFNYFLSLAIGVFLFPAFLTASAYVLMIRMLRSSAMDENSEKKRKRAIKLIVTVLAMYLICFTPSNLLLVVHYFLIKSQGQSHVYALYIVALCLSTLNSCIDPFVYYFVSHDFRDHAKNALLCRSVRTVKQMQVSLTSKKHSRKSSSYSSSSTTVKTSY

Wildtype human PAR 1 (human), sequence (P25116 42-425 limits assumed): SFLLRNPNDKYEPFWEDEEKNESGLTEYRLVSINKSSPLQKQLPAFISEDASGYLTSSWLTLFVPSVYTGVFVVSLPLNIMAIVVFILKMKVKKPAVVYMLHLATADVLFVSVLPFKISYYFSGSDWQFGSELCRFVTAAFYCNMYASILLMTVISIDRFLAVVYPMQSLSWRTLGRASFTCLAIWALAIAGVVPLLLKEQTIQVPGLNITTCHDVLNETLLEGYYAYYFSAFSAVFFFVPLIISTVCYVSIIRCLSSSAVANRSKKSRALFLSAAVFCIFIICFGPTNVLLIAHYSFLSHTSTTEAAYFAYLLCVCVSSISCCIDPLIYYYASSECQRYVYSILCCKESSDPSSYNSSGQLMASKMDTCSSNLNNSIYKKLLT
Wildtype human PAR2 expressed on cells (human), sequence (P55085 37-397 limits assumed): as the sequence (P55085 37-397 limits assumed) above

- % Max Inhibition, AP challenge, IP-One [1]: 100%
- % Max Inhibition, Bovine Trypsin challenge, IP-One [1]: 0%
- Human PAR1 SFLLR IC50, IP-One [2]: > 1000 nM
- SFLLR fold inhibition, human PAR1, IP-One [2]: 0 fold
- EC50 [3]: 6.8 nM
Substance: MAB3949 (antibody)
